Reference: patent publication US20220305066A1

Target: EpCAM (epithelial cell adhesion molecule) on cells (UniProt P16422)
Test: cell-based or functional assay

UniProt P16422, sequence (P16422 24-314 limits assumed): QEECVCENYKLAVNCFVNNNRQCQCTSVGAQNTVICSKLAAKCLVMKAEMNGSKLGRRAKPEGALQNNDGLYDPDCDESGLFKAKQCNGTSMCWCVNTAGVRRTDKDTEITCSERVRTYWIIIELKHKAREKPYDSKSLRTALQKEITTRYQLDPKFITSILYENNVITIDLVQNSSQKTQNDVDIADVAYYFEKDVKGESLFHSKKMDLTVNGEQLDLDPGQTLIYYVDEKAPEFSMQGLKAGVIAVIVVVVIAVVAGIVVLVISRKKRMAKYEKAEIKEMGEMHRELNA

B1: EpCAMscFv-HveA adapter (fused protein of scFv for EpCAM and HveA82 extracellular domain of HVEM) (protein)
chain: DIQMTQSPSSLSASVGDRVTITCRSTKSLLHSNGITYLYWYQQKPGKAPKLLIYQMSNLASGVPSRFSSSGSGTDFTLTISSLQPEDFATYYCAQNLEIPRTFGQGTKVELKRATPSHNSHQVPSAGGPTANSGTSGSEVQLVQSGPGLVQPGGSVRISCAASGYTFTNYGMNWVKQAPGKGLEWMGWINTYTGESTYADSFKGRFTFSLDTSASAAYLQINSLRAEDTAVYYCARFAIKGDYWGQGTLLTVSSGGGGSEFLPSCKEDEYPVGSECCPKCSPGYRVKEACGELTGTVCEPCPPGTYIAHLNGLSKCLQCQMCDPAMGLRASRNCSRTENAVCGHHHHHH
Question: Which cell viability of BT-474 cells 5 days after infection with EADa-S virus does the source give for B1 here?
Answer: The cell viability of BT-474 cells 5 days after infection with EADa-S virus was 34%.

Question: What about the cell viability of MCF-7 cells 5 days after infection with EADa-S virus of the same binder?
Answer: The cell viability of MCF-7 cells 5 days after infection with EADa-S virus was 31%.

Question: And the cell viability of MDA-MB-453 cells 5 days after infection with EADa-S virus?
Answer: Its cell viability of MDA-MB-453 cells 5 days after infection with EADa-S virus is 19%.
